Data: US20230075979A1

Assays:
[1] = target: human ACE2 peptidase domain (amino acids 1-615 of human ACE2 with C-terminal His-10 and Avi tags) (human) (UniProt Q9BYF1)
[2] = target: human ACE2 peptidase domain (amino acids 1-615 of human ACE2 with C-terminal His-10 and Avi tags) (human) (UniProt Q9BYF1); assay: biolayer interferometry (Octet RED384); assumed value, not measured

Chain of UniProt Q9BYF1 (Q9BYF1 18-615 limits assumed): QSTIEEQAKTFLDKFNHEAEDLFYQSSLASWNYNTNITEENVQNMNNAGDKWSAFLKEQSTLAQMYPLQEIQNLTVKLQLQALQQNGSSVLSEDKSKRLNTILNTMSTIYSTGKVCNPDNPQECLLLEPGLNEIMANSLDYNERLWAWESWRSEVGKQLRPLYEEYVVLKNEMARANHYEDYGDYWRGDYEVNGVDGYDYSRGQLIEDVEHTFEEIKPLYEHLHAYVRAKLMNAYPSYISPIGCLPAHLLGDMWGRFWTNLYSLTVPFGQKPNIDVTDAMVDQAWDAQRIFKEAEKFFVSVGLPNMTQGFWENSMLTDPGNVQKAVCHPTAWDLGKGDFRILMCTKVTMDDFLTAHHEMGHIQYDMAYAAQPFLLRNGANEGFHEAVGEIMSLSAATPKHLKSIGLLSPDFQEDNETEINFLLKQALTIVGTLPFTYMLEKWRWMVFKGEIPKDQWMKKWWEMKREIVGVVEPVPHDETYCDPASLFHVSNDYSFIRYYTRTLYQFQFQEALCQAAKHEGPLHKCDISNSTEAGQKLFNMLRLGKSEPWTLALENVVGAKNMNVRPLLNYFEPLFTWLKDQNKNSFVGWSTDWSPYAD

RBD-foldon trimer (trimerised SARS-CoV-2 spike receptor-binding domain fused to the T4 fibritin fold (other; other documents disagree on this pair)
Kd [1]: 5 pM | koff [2]: < 1e-06 s⁻¹
